Literature values in paper PMC8406260.

Target: SARS-CoV-2 main protease Mpro (Severe acute respiratory syndrome coronavirus 2) (UniProt P0DTD1)

SARS-CoV-2 main protease Mpro (from UniProt P0DTD1)
Kd: 2 µM
